Laboratory results taken from patent US20030194400.

Columns and labels:
[1] = biological target: fibronectin-Tissue Factor (Fn-TF) fusion protein
[2] = biological target: T1, soluble Tissue Factor extracellular domain TF1-218
T1 chain: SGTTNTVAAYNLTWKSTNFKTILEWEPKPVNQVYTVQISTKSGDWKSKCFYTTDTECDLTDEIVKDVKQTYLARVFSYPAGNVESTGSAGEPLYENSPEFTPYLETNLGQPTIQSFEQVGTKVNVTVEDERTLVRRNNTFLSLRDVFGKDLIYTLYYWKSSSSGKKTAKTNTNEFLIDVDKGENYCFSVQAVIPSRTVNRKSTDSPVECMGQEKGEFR

B1: Factor VIIa (protein)
chain: ANAFLEELRPGSLERECKEEQCSFEEAREIFKDAERTKLFWISYSDGDQCASSPCQNGGSCKDQLQSYICFCLPAFEGRNCETHKDDQLICVNENGGCEQYCSDHTGTKRSCRCHEGYSLLADGVSCTPTVEYPCGKIPILEKRNASKPQGRIVGGKVCPKGECPWQVLLLVNGAQLCGGTLINTIWVVSAAHCFDKIKNWRNLIAVLGEHDLSEHDGDEQSRRVAQVIIPSTYVPGTTNHDIALLRLHQPVVLTDHVVPLCLPERTFSERTLAFVRFSLVSGWGQLLDRGATALELMVLNVPRLMTQDCLQQSRKVGDSPNITEYMFCAGYSDGSKDSCKGDSGGPHATHYRGTWYLTGIVSWGQGCATVGHFGVYTRVSQYIEWLQKLMRSEPRPGVLLRAPFP
Factor VIIa amidolytic activity (chromozym t-PA hydrolysis) [1]: Very little difference in amidolytic activity is discernable for Tissue Factor and Fn-TF except at high concentrations
Factor VIIa amidolytic activity (chromozym t-PA hydrolysis) [2]: Very little difference in amidolytic activity is discernable for Tissue Factor and Fn-TF except at high concentrations
